In patent US20150218240A1 (SAMSUNG ELECTRONICS, published 2015):

Target: T1, Cdk6 (Abcam's ab84717, recombinant full length Human Cdk6 (amino acids 1-326) with N-terminal His tag) (human, UniProt Q00534 1-326)
T1 construct: range 1-326; Bought reagent (Abcam ab84717), coated on the ELISA plate at 1 ug/ml; also called CDk6 protein; not shown: N-terminal His tag of the bought protein
Experiment: ELISA: Cdk6 coated on plate, p16 at 0-10 uM, detected with anti-p16 antibody and HRP secondary, A450

T1 sequence (Q00534 whole entry, the tested form may be a part): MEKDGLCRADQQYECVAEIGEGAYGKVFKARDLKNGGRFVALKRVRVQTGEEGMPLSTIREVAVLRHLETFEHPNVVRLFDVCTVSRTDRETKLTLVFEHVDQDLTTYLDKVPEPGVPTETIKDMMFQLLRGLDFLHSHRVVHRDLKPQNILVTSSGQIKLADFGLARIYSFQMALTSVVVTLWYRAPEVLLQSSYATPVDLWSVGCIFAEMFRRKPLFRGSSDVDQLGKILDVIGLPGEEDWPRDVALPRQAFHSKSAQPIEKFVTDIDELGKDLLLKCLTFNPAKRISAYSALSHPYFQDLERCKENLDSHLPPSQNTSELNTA

B1: human p16 protein variant (SEQ ID NO: 2; W15K, L37D, L65K, C72S, L78S, V106A, L113T) (other)
chain: MEPAAGSSMEPSADKLATAAARGRVEEVRALLEAGADPNAPNSYGRRPIQVMMMGSARVAELLLKHGAEPNSADPATSTRPVHDAAREGFLDTLVVLHRAGARLDARDAWGRTPVDLAEELGHRDVARYLRAAAGGTRGSNHARIDAAEGPSDIPD
notes: also called p16INK4a variant; mt p16
Q: Does B1 bind?
A: Result: binds
